Patent US20180298377A1 (RESEARCH FOUNDATION FOR THE STATE UNIVERSITY OF NEW YORK, published 2018)

Experiments:
[1] = target: T1, Hxt1-F[3] (S. cerevisiae, UniProt P32465 1-570; P00375 107-187); test: cell-based or functional assay
T1 sequence (looked up): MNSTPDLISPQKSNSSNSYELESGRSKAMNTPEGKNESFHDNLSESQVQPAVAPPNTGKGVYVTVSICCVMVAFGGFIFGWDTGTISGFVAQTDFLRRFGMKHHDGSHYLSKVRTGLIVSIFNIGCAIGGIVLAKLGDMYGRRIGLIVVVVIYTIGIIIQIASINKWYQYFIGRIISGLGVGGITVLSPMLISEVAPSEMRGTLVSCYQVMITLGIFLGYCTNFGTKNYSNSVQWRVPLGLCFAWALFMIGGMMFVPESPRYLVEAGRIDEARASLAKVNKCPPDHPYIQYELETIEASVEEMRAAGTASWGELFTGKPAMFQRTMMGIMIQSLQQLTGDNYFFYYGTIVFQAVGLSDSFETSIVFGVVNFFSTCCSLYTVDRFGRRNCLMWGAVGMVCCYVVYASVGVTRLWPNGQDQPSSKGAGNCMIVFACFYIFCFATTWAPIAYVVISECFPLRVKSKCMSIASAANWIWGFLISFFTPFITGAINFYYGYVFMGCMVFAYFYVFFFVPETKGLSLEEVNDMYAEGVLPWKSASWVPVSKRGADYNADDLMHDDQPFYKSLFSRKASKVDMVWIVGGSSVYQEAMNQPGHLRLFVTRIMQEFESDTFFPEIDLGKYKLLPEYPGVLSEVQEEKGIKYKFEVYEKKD

[2] = target: Pdr5-F[3] (S. cerevisiae, UniProt P33302 1-1511; P00375 107-187); test: cell-based or functional assay
[3] = target: T2, Fpr1-F[3] (S. cerevisiae, UniProt P20081 2-114; P00375 107-187); test: cell-based or functional assay
T2 sequence (looked up): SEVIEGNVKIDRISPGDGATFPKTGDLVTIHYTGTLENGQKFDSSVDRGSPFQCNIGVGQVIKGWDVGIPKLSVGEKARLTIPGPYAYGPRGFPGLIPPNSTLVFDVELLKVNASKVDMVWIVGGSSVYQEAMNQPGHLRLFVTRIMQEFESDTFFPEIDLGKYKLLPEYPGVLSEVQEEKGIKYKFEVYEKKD

[4] = target: T3, Pdr5 split Renilla luciferase (Rluc) PCA fusion (S. cerevisiae, UniProt P33302 1-1511); test: split Renilla luciferase PCA, luminescence of yeast cells, 200 µM copper sulfate
T3 construct: whole, on cells; DHFR fragment of the Pdr5-F[3] strain replaced by an Rluc PCA fragment by homologous recombination; also called Pdr5 (Rluc PCA strain); not shown: linker of the pAG25/pAG32-linker-Rluc cassettes; Renilla luciferase PCA fragment; DHFR F[3] strains are said to receive Rluc F[1], but the next sentences call preys Rluc
T3 sequence (P33302 whole entry, the tested form may be a part): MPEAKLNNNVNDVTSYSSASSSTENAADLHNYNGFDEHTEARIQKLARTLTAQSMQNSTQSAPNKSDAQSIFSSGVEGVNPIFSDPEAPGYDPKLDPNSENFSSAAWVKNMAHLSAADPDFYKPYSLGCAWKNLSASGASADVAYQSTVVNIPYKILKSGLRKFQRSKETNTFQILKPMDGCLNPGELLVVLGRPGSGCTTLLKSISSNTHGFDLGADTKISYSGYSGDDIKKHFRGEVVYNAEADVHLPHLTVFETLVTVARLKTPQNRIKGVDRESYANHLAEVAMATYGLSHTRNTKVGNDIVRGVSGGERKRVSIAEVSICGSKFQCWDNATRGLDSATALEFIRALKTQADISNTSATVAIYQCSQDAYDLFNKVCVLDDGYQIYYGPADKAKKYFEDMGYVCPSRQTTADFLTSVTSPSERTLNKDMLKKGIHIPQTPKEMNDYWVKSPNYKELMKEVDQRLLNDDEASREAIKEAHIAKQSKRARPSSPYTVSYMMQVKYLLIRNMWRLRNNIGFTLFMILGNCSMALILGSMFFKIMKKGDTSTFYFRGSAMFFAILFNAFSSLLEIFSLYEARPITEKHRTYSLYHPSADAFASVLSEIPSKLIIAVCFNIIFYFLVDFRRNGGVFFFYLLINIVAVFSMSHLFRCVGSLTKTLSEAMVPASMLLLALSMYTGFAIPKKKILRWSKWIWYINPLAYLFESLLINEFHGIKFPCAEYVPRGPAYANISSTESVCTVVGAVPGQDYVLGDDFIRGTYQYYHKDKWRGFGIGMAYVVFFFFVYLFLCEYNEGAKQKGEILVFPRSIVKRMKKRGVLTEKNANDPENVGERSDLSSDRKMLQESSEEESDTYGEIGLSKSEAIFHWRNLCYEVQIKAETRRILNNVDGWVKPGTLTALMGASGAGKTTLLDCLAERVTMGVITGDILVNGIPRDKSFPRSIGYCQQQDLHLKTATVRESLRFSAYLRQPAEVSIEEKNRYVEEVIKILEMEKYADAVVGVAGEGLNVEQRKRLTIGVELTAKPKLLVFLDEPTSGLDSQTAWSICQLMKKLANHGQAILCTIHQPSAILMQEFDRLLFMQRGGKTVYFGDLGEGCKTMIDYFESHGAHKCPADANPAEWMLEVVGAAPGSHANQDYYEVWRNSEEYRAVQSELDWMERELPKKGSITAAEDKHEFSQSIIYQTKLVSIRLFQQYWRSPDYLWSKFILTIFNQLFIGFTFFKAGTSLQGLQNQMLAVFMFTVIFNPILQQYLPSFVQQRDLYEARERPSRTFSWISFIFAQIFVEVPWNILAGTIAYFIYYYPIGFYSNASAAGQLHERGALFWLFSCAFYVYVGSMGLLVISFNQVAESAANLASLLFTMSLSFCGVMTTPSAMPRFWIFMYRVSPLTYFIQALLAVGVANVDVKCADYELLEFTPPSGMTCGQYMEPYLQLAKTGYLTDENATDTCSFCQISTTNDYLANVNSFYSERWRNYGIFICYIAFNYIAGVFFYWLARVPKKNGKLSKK
Protocol: Triplicate fresh colonies of each diploid Rluc PCA strain were grown in 5 ml synthetic dextrose media supplemented with standard concentrations of histidine, leucine, and uracil at 30° C. for 24 h, then diluted 1:32 into 5 ml of the same media supplemented DMSO (0.5%), FK506 (50 μM), hydrogen peroxide (0.001%), sodium chloride (175 mM), or copper sulfate (200 μM). Cells were grown for 24 h at 30° C., diluted 1:32 again into fresh media containing the same supplement, and grown for another 6 h. Cells were counted, and 1-2×10⁷ cells were pelleted, and resuspended in 180 ul phosphate-buffered saline (PBS), pH 7.2 containing 1 mM EDTA. Cells were transferred to white 96-well flat bottom plates (Greiner bio-one #655075). The luciferase substrate, benzyl coelenterazine (Nanolight #301), was diluted 1:10 from the stock (2 mM in absolute ethanol) using 1×PBS, and 20 ul of diluted substrate was added to each sample (to a final concentration of […]). A Centro LB 960 microplate luminometer (Berthold Technologies) was used to measure the Rluc PCA signal, which was integrated for 10 seconds. Changes in luminescence in response to a specific condition were calculated by the following equation: luminescencecondition/luminescenceDMSO.

[5] = target: Snq2-F[3] (S. cerevisiae, UniProt P32568 2-1501; P00375 107-187); test: cell-based or functional assay

B1: Shr3-F[1,2] (other, UniProt Q02774 1-210, looked up, not shown: small tags and cut ends)
chain: MFSYSDFCSIGTAMILSATTFLMGVFFSNMPYDYHLLFNPNSTQEHFDLALRHYQILHETPLPVIVTLCVVAGIGLVGGTIKVFKPNPELQMFEYCSLGLYVLAICVFLTNVKTGIDCSVSHNWGEVTENQGLAVIASSNIILLVMFAGVIILQIGLWYSNWDLQKRLKEFYAQEEREAANAGKKTEKVDNAKKNDNKSKGAQKRKNAKKVRPLNCIVAVSQNMGIGKNGDLPWPPLRNEFKYFQRMTTTSSVEGKQNLVIMGRKTWFSIPEKNRPLKDRINIVLSRELKEPPRGAHFLAKSLDDALRLIEQPEL
**Q.** B1 was tested. Which “fitness (PPiSeq, MTX(+), benign environment)” value [1] did it give?
**A.** The value was 0.1.

B2: Fmp45-F[1,2] (other, UniProt Q07651 1-309, looked up, not shown: small tags and cut ends)
chain: MIFKRFVNLLVFLFLLGAGLLTFFLILSGGRESGTLKNFYWLQADTNGFNSAPSTTRWYNYNWCGYEDGQLANCSSRAPAKPFSPRDNFGNSVNLPSSFRNNRDTYYYLSRVGWAMLLISLFFIVLALVPGFLATFLPFKAVPVLYCVLSWLAFFFIILAACLYTGCYVKARKTFRNSGRSARLGPKNFAFIWTSVFLMLVNAIWSTIFSATHKAHSTYSDHDMYAQYESPSVDTGAQMEKSTYNSGATDGAGPITAAPVVGQPQPTTTTTPAGNGKFFQKLKTRKQVPSAELEPAGDGGLAGPVTVRDVRPLNCIVAVSQNMGIGKNGDLPWPPLRNEFKYFQRMTTTSSVEGKQNLVIMGRKTWFSIPEKNRPLKDRINIVLSRELKEPPRGAHFLAKSLDDALRLIEQPEL
**Q.** Which “fitness (PPiSeq, MTX(+), benign environment)” value [2] does the source give for B2 here?
**A.** Its value is 0.06.

B3: Hom3-F[1,2] (other, UniProt P10869 1-527, looked up, not shown: small tags and cut ends)
chain: MPMDFQPTSSHSNWVVQKFGGTSVGKFPVQIVDDIVKHYSKPDGPNNNVAVVCSARSSYTKAEGTTSRLLKCCDLASQESEFQDIIEVIRQDHIDNADRFILNPALQAKLVDDTNKELELVKKYLNASKVLGEVSSRTVDLVMSCGEKLSCLFMTALCNDRGCKAKYVDLSHIVPSDFSASALDNSFYTFLVQALKEKLAPFVSAKERIVPVFTGFFGLVPTGLLNGVGRGYTDLCAALIAVAVNADELQVWKEVDGIFTADPRKVPEARLLDSVTPEEASELTYYGSEVIHPFTMEQVIRAKIPIRIKNVQNPLGNGTIIYPDNVAKKGESTPPHPPENLSSSFYEKRKRGATAITTKNDIFVINIHSNKKTLSHGFLAQIFTILDKYKLVVDLISTSEVHVSMALPIPDADSLKSLRQAEEKLRILGSVDITKKLSIVSLVGKHMKQYIGIAGTMFTTLAEEGINIEMISQGANEINISCVINESDSIKALQCIHAKLLSERTNTSNQFEHAIDERLEQLKRLGIVRPLNCIVAVSQNMGIGKNGDLPWPPLRNEFKYFQRMTTTSSVEGKQNLVIMGRKTWFSIPEKNRPLKDRINIVLSRELKEPPRGAHFLAKSLDDALRLIEQPEL
**Q.** B3 was tested. Which “fitness in 50 µM FK506 against the benign environment (PPiSeq, MTX(+))” value [3] did it give?
**A.** The value was ~10 fold.

B4: Ftr1 split Renilla luciferase (Rluc) PCA fusion (other, S. cerevisiae, UniProt P40088 1-404, looked up)
chain: MPNKVFNVAVFFVVFRECLEAVIVISVLLSFLKQAIGEHDRALYRKLRIQVWVGVLLGFIICLAIGAGFIGAYYSLQKDIFGSAEDLWEGIFCMIATIMISMMGIPMLRMNKMQSKWRVKIARSLVEIPHRKRDYFKIGFLSRRYAMFLLPFITVLREGLEAVVFVAGAGITTQGSHASAYPLPVVVGLICGGLVGYLLYYGASKSSLQIFLILSTSILYLISAGLFSRGAWYFENYRFNLASGGDASEGGDGNGSYNIRKAVYHVNCCNPELDNGWDIFNALLGWQNTGYLSSMLCYNIYWLVLIIVLSLMIFEERRGHLPFTKNLQLKHLNPGYWIKNKKKQELTEEQKRQLFAKMENINFNEDGEINVQENYELPEQTTSHSSSQNVATDKEVLHVKADSL
notes: whole, on cells; DHFR fragment of the Ftr1-F[1,2] strain replaced by an Rluc PCA fragment by homologous recombination; also called Ftr1 (Rluc PCA strain); not shown: linker of the pAG25/pAG32-linker-Rluc cassettes; Renilla luciferase PCA fragment; DHFR F[1,2] strains are said to receive Rluc F[2], but the next sentences call baits Rl
**Q.** Does B4 bind [4]?
**A.** Result: binds

B5: Tpo1-F[1,2] (other, UniProt Q07824 1-586, looked up, not shown: small tags and cut ends)
chain: MSDHSPISNKENHLLPSDSSRSSSSDMHSTGTTGTTGVEPVDFTGEGAKYTTATEGNGGADLAIQRTTTMNSAAESEVNITRRLTKILTGSVNEPDRVEVDYTNCAPMGGDRPYPPSLPSRDLYEVTFDGPNDPLHPFNWPMKKKVLLCLVLCLDSIAIAMCSSIFASAVPQICEIYHVIEVVAILGITLFVLGFAASPVIYAPLSELYGRKGVLVLSAFGFALFQFAVATAENLQTIFICRFFGGFIGAAPMAVVPAAFADMFDTNVRGKAIALFSLGVFVGPILSPVMGSYIAQRTTWRWLEYVVGCFASAVFVAIVLFFEETHHPTILVNKAKQMRKQSNNWGIHAAHEDVELSIKDIVQKTVTRPIIMLFVEPLLLFVTIYNSFVYGILYLLLEAYPLVFVEGYGFTENGELPYIALIIGMMVCAAFIWYMDNDYLKRCRAKGKLVPEARLYAMVIAGTVFPIGILWFCWTGYYPHKIHWMVPTVGGAFIGFGLMGIFLPCLNYIIESYLLLAASAVAANTFMRSAFGACFPLFAGYMFRGMGIGWAGLLLGLFAAAMIPVPLLFLKYGESIRKKSKYAYAAVRPLNCIVAVSQNMGIGKNGDLPWPPLRNEFKYFQRMTTTSSVEGKQNLVIMGRKTWFSIPEKNRPLKDRINIVLSRELKEPPRGAHFLAKSLDDALRLIEQPEL
**Q.** B5 was tested. Which “fitness (PPiSeq, MTX(+), benign environment)” value [5] did it give?
**A.** The value was 0.08.

B6: Ftr1-F[1,2] (other, UniProt P40088 1-404, looked up, not shown: small tags and cut ends)
chain: MPNKVFNVAVFFVVFRECLEAVIVISVLLSFLKQAIGEHDRALYRKLRIQVWVGVLLGFIICLAIGAGFIGAYYSLQKDIFGSAEDLWEGIFCMIATIMISMMGIPMLRMNKMQSKWRVKIARSLVEIPHRKRDYFKIGFLSRRYAMFLLPFITVLREGLEAVVFVAGAGITTQGSHASAYPLPVVVGLICGGLVGYLLYYGASKSSLQIFLILSTSILYLISAGLFSRGAWYFENYRFNLASGGDASEGGDGNGSYNIRKAVYHVNCCNPELDNGWDIFNALLGWQNTGYLSSMLCYNIYWLVLIIVLSLMIFEERRGHLPFTKNLQLKHLNPGYWIKNKKKQELTEEQKRQLFAKMENINFNEDGEINVQENYELPEQTTSHSSSQNVATDKEVLHVKADSLVRPLNCIVAVSQNMGIGKNGDLPWPPLRNEFKYFQRMTTTSSVEGKQNLVIMGRKTWFSIPEKNRPLKDRINIVLSRELKEPPRGAHFLAKSLDDALRLIEQPEL
**Q.** With B6 as the binder, how does the “fitness (PPiSeq, MTX(+), benign environment, relative to control strain lacking mDHFR fragments)” value [2] read?
**A.** The value was 0.1.
